From article PMC5030094, “Human DNA2 possesses a cryptic DNA unwinding activity that functionally integrates with BLM or WRN helicases”

Biological target: T1, hDNA2 D277A (nuclease-deficient) (Homo sapiens, UniProt P51530 1-1060, D277A)
T1 sequence: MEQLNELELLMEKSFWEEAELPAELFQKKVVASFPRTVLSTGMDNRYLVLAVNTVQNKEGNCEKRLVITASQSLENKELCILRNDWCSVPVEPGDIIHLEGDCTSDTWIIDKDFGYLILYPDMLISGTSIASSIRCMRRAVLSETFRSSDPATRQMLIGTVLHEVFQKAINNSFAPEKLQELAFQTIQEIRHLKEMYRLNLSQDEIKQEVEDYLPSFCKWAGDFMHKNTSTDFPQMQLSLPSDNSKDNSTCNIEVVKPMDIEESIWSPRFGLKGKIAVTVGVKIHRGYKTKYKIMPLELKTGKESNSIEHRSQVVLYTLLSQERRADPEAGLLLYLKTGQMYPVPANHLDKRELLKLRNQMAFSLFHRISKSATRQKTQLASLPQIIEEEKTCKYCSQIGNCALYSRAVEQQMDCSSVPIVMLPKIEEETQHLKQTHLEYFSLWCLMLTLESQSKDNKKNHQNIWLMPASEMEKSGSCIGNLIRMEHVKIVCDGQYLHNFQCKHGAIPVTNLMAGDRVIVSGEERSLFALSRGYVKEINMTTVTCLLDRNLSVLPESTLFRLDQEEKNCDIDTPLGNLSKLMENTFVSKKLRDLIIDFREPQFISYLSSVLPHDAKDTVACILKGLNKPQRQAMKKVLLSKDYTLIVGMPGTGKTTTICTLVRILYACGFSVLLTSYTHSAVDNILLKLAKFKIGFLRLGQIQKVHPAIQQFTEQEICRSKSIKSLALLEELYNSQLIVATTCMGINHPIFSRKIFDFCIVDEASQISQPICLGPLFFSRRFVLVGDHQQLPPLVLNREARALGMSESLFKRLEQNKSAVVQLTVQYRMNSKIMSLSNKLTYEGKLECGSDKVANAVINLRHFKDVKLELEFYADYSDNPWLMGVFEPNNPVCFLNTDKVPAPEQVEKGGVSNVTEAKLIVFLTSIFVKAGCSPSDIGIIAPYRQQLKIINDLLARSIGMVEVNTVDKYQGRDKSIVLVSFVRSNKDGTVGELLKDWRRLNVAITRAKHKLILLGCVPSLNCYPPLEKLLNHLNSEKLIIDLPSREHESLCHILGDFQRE
Test: EMSA; no RPA; 25 mM Tris-acetate pH 7.5, 2 mM Mg acetate, 1 mM DTT, 0.1 mg/ml BSA, 1 nM DNA, 37 C 30 min; 6% PAGE in TAE on ice
Conditions: protein: recombinant; tags: N-terminal 6xHis, C-terminal FLAG; label: 5' 32P; single strand

## GACGTCATAGACGATTACATTGCTAGGACATGCTGTCTAGAGACTATCGC (ssDNA) [ssDNA 50 nt (X12-3)]
  Kd: ~2 nM
